The text below walks through data of patent US20220315554A1 (3B PHARMACEUTICALS GMBH, published 2022).

To fix the notation:
B1: Hex-[Cys(3MeBn)-Pro-Pro-Thr-Gln-Phe-Cys]-Asp-Ape-NH-DOTA' (peptide)
peptide: Hexanoyl-CPPTQFCD
modifications: linker 1-7 via mXylylene; not fully specified (C-terminus); printed as Hex-[Cys(3MeBn)-Pro-Pro-Thr-Gln-Phe-Cys]-Asp-Ape(DOTA)
B2: Hex-[Cys(3MeBn)-Pro-Pro-Thr-Glu-Phe-Cys]-Asp-His-Phe-Arg-Asp-NH2 (peptide)
peptide: Hexanoyl-CPPTEFCDHFRD-NH2
modifications: linker 1-7 via mXylylene
SMILES: CCCCCC(=O)N[C@H]1CSCc2cccc(c2)CSC[C@@H](C(=O)N[C@@H](CC(=O)O)C(=O)N[C@@H](Cc2c[nH]cn2)C(=O)N[C@@H](Cc2ccccc2)C(=O)N[C@@H](CCCNC(=N)N)C(=O)N[C@@H](CC(=O)O)C(N)=O)NC(=O)[C@H](Cc2ccccc2)NC(=O)[C@H](CCC(=O)O)NC(=O)[C@H]([C@@H](C)O)NC(=O)[C@@H]2CCCN2C(=O)[C@@H]2CCCN2C1=O
B3: Pentyl-SO2-[Cys(3MeBn)-Pro-Pro-Thr-Gln-Phe-Cys]-Asp-NH2 (peptide)
peptide: Pentanesulfonyl-CPPTQFCD-NH2
modifications: linker 1-7 via mXylylene
SMILES: CCCCCS(=O)(=O)N[C@H]1CSCc2cccc(c2)CSC[C@@H](C(=O)N[C@@H](CC(=O)O)C(N)=O)NC(=O)[C@H](Cc2ccccc2)NC(=O)[C@H](CCC(N)=O)NC(=O)[C@H]([C@@H](C)O)NC(=O)[C@@H]2CCCN2C(=O)[C@@H]2CCCN2C1=O
B4: Hex-[Cys(3MeBn)-Pro-Pro-Thr-Gln-Phe-Cys]-Asp-Ttds-Ape-NH-DOTA' (peptide)
peptide: Hexanoyl-CPPTQFCD
modifications: linker 1-7 via mXylylene; not fully specified (C-terminus); printed as Hex-[Cys(3MeBn)-Pro-Pro-Thr-Gln-Phe-Cys]-Asp-Ttds-Ape(DOTA)
B5: Hex-[Cys(tMeBn(DOTA-AET))-Pro-Pro-Thr-Gln-Phe-Cys]-asp-NH2 (peptide)
peptide: CPPTQFCD
modifications: N-terminal Hex (hexanoyl); Cys1-Cys7 bridged by tMeBn(DOTA-AET) (thioethers); D-Asp8 (asp); C-terminal amide
B6: Hex-[Cys(3MeBn)-Pro-Pro-Thr-Gln-Phe-Cys]-Asp-NH2 (peptide)
peptide: Hexanoyl-CPPTQFCD-NH2
modifications: linker 1-7 via mXylylene
SMILES: CCCCCC(=O)N[C@H]1CSCc2cccc(c2)CSC[C@@H](C(=O)N[C@@H](CC(=O)O)C(N)=O)NC(=O)[C@H](Cc2ccccc2)NC(=O)[C@H](CCC(N)=O)NC(=O)[C@H]([C@@H](C)O)NC(=O)[C@@H]2CCCN2C(=O)[C@@H]2CCCN2C1=O
B7: Ac-[Cys(3MeBn)-Pro-Pro-Thr-Glu-Phe-Cys]-Asp-His-Phe-Arg-Asp-NH2 (peptide)
peptide: Ac-CPPTEFCDHFRD-NH2
modifications: linker 1-7 via mXylylene
SMILES: CC(=O)N[C@H]1CSCc2cccc(c2)CSC[C@@H](C(=O)N[C@@H](CC(=O)O)C(=O)N[C@@H](Cc2c[nH]cn2)C(=O)N[C@@H](Cc2ccccc2)C(=O)N[C@@H](CCCNC(=N)N)C(=O)N[C@@H](CC(=O)O)C(N)=O)NC(=O)[C@H](Cc2ccccc2)NC(=O)[C@H](CCC(=O)O)NC(=O)[C@H]([C@@H](C)O)NC(=O)[C@@H]2CCCN2C(=O)[C@@H]2CCCN2C1=O
B8: Hex-[Cys(3MeBn)-Pro-Pro-Ala-Glu-Phe-Cys]-NH2 (peptide)
peptide: Hexanoyl-CPPAEFC-NH2
modifications: linker 1-7 via mXylylene
SMILES: CCCCCC(=O)N[C@H]1CSCc2cccc(c2)CSC[C@@H](C(N)=O)NC(=O)[C@H](Cc2ccccc2)NC(=O)[C@H](CCC(=O)O)NC(=O)[C@H](C)NC(=O)[C@@H]2CCCN2C(=O)[C@@H]2CCCN2C1=O
B9: Hex-[Cys(3MeBn)-Pro-Pro-Thr-Ala-Phe-Cys]-NH2 (peptide)
peptide: Hexanoyl-CPPTAFC-NH2
modifications: linker 1-7 via mXylylene
SMILES: CCCCCC(=O)N[C@H]1CSCc2cccc(c2)CSC[C@@H](C(N)=O)NC(=O)[C@H](Cc2ccccc2)NC(=O)[C@H](C)NC(=O)[C@H]([C@@H](C)O)NC(=O)[C@@H]2CCCN2C(=O)[C@@H]2CCCN2C1=O

Numbered stars: 1 amine (or outer) side, 2 acyl side, 3 side chain; on linkers, the order of the positions; unused ones are H or OH. Bridge positions count the residues as written; N and C are the ends. Ends that are not written are not given here. * marks the point of attachment. Ttds = 1,13-diamino-4,7,10-trioxatridecan-succinamic acid, NCCCOCCOCCOCCCNC(=O)CCC(=O)*; tMeBn(DOTA-AET) = Cys-Cys bridge (thioethers) carrying DOTA-AET; tMeBn(DOTA-PP) = Cys-Cys bridge (thioethers) carrying DOTA-PP; DOTA = O=C(O)CN1CCN(CC(=O)O)CCN(CC(=O)*)CCN(CC(=O)O)CC1; mXylylene = c1cc(C[*:1])cc(C[*:2])c1; 2Lut = Cys-Cys bridge (thioethers); 3Lut = Cys-Cys bridge (thioethers); Pentanesulfonyl = CCCCCS(=O)(=O)*; Hexanoyl = CCCCCC(=O)*

The target in one test is T1, human fibroblast activation protein (FAP) on FAP-expressing human WI-38 fibroblasts (human). Put plainly: competition FACS, WI-38 cells, vs Cy5-labeled compound; A: pIC50 >8.0.
T1 sequence (chain, as listed by the source): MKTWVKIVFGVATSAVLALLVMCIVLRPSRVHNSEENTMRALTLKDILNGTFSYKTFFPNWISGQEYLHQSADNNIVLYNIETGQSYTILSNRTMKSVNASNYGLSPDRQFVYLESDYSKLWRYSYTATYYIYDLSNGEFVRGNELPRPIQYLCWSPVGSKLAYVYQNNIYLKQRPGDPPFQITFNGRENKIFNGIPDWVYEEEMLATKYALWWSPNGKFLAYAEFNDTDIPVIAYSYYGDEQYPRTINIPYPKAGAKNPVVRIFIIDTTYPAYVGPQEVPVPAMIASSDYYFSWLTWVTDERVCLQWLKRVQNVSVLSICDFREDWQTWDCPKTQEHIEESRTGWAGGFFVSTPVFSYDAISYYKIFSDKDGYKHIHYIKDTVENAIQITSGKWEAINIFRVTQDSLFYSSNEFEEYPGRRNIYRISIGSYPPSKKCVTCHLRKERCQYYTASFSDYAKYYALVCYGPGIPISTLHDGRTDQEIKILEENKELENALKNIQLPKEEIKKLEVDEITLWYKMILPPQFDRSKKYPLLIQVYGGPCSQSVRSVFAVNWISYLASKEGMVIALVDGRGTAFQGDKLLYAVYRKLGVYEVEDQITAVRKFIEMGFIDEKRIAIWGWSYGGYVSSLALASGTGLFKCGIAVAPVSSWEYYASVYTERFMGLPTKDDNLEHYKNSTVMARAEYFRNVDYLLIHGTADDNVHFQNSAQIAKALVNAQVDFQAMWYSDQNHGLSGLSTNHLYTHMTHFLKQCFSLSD
With B1, the “pIC50 Category (FACS)” value was more than 8 pIC50.
On the same count and under the same terms, under Hexanoyl-CPPTQFCD-NH2 (linker 1-7 via tMeBn(GaDOTA-PP)) [Hex-[Cys(tMeBn(GaDOTA-PP))-Pro-Pro-Thr-Gln-Phe-Cys]-Asp-NH2] stands more than 8 pIC50; under Hexanoyl-CPPTQFCD-NH2 (linker 1-7 via 3Lut) [Hex-[Cys(3Lut)-Pro-Pro-Thr-Gln-Phe-Cys]-Asp-NH2], more than 8 pIC50.
On the same count and under the same terms, next, {DOTA-Ttds}-LCPPTEFCDHFRD-NH2 (linker 2-8 via mXylylene) [DOTA-Ttds-Leu-[Cys(3MeBn)-Pro-Pro-Thr-Glu-Phe-Cys]-Asp-His-Phe-Arg-Asp-NH2]: more than 8 pIC50; B2: more than 8 pIC50; Pentanesulfonyl-CPPTQFCD-NH2 (linker 1-7 via tMeBn(DOTA-PP)) [Pentyl-SO2-[Cys(tMeBn(DOTA-PP))-Pro-Pro-Thr-Gln-Phe-Cys]-Asp-NH2]: more than 8 pIC50.
In the case of Hexanoyl-CPPTQFCS-OH (linker 1-7 via tMeBn(DOTA-AET)) [Hex-[Cys(tMeBn(DOTA-AET))-Pro-Pro-Thr-Gln-Phe-Cys]-Ser-OH], the “pIC50 Category (FACS)” value is more than 8 pIC50.
On the same count and under the same terms, under Hexanoyl-CPPTQFCD-NH2 (linker 1-7 via tMeBn(LuDOTA-PP); also: Lu-DOTA complex) [Hex-[Cys(tMeBn(LuDOTA-PP))-Pro-Pro-Thr-Gln-Phe-Cys]-Asp-NH2] stands more than 8 pIC50; under Pentanesulfonyl-CPPTEFC-OH (linker 1-7 via tMeBn(DOTA-AET)) [Pentyl-SO2-[Cys(tMeBn(DOTA-AET))-Pro-Pro-Thr-Glu-Phe-Cys]-OH], more than 8 pIC50; under Hexanoyl-CPPTQFCD-OH (linker 1-7 via tMeBn(DOTA-AET)) [Hex-[Cys(tMeBn(DOTA-AET))-Pro-Pro-Thr-Gln-Phe-Cys]-Asp-OH], more than 8 pIC50.
The same measure, in the same setting: under Hexanoyl-CPPTEFC-NH2 (linker 1-7 via tMeBn(DOTA-AET)) [Hex-[Cys(tMeBn(DOTA-AET))-Pro-Pro-Thr-Glu-Phe-Cys]-NH2] stands more than 8 pIC50; under B3, more than 8 pIC50; under B4, more than 8 pIC50.
As to Hexanoyl-CPPTQFCD-NH2 (linker 1-7 via tMeBn(InDOTA-PP); also: In-DOTA complex) [Hex-[Cys(tMeBn(InDOTA-PP))-Pro-Pro-Thr-Gln-Phe-Cys]-Asp-NH2], the “pIC50 Category (FACS)” value is more than 8 pIC50.
Same read-out and setting: next, Hexanoyl-CPPTQFCD-NH2 (linker 1-7 via tMeBn(EuDOTA-PP); also: Eu-DOTA complex) [Hex-[Cys(tMeBn(EuDOTA-PP))-Pro-Pro-Thr-Gln-Phe-Cys]-Asp-NH2]: more than 8 pIC50; Hexanoyl-CPPTQFCD-NH2 (linker 1-7 via tMeBn(DOTA-PP)) [Hex-[Cys(tMeBn(DOTA-PP))-Pro-Pro-Thr-Gln-Phe-Cys]-Asp-NH2]: more than 8 pIC50.
The same measure, in the same setting: under Hexanoyl-CPPTQFCD-NH2 (linker 1-7 via 2Lut) [Hex-[Cys(2Lut)-Pro-Pro-Thr-Gln-Phe-Cys]-Asp-NH2] stands more than 8 pIC50.
Still for that read-out and setting: next, Hexanoyl-CPPTQFCD-NH2 (linker 1-7 via tMeBn(DOTA-AET)) [Hex-[Cys(tMeBn(DOTA-AET))-Pro-Pro-Thr-Gln-Phe-Cys]-Asp-NH2]: more than 8 pIC50; B5: more than 8 pIC50; B6: more than 8 pIC50.
For the molecule B7, the “pIC50 Category (FACS)” value was more than 8 pIC50.

A further test has as its target T1, human fibroblast activation protein …. Put plainly: competition FACS, WI-38 cells, vs Cy5-labeled compound; D: pIC50 ≤6.0.
As to B8, the “pIC50 Category (FACS)” value was not above 6 pIC50.
Same read-out and setting: next, B9: not above 6 pIC50.
